Data reported in publication PMC7708447, “Ultrasensitive antibody-aptamer plasmonic biosensor for malaria biomarker detection in whole blood”.

Columns and labels:
[1] = molecular target: Plasmodium falciparum lactate dehydrogenase (PfLDH) (Plasmodium falciparum, UniProt Q76NM3 1-316); test: antibody-aptamer sandwich plasmon-enhanced fluorescence; PfLDH captured by anti-PLDH on AuNP array; spiked human blood; 0.1 uM aptamer; sandwich LOD 18 fM (not a Kd); association time constant 45 +/- 15 min; Aptamer step: PBS (10 mM NaCl, 10 mM NaH2PO4, 10 mM Na2HPO4, 1 mM MgCl2, pH 7.1), 0.1 uM Cy5-aptamer, 2 h in the dark; temperature not stated; analyte spiked in human blood; conditions: protein: recombinant; chain copies: 4; label: 5'-Cy5
[2] = molecular target: Plasmodium vivax lactate dehydrogenase (PvLDH) (Plasmodium vivax, UniProt Q4PRK9 1-316); test: antibody-aptamer sandwich plasmon-enhanced fluorescence; conditions: protein: recombinant; chain copies: 4

CTGGGCGGTAGAACCATAGTGACCCAGCCGTCTAC (ssDNA) [malaria 2008s aptamer]: binds [1]; no binding [2].
